Key:
[1] = test system: HeLa Kyoto; test: melting temperature (median over replicates), in situ; higher = more thermally stable
[2] = test system: HeLa Kyoto; test: solubility in G1/S (NP-40 vs SDS abundance) (log2 ratio); higher = more soluble; details: cell cycle stage: G1/S
[3] = test system: HeLa Kyoto; test: solubility change mitosis vs G1/S (difference of NP-40 vs SDS log2 ratios) (log2 ratio difference); higher = more soluble in mitosis
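For melting temperature (median over replicates), in situ in this document: HeLa Kyoto cells synchronized by double thymidine or nocodazole block, proteins quantified by TMT10plex mass spectrometry, three independent biological replicates.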
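For solubility change mitosis vs G1/S (difference of NP-40 vs SDS log2 ratios) in this document: synchronized HeLa Kyoto cells (double thymidine block for G1/S, nocodazole release for mitosis), protein amounts in NP-40 versus SDS lysates quantified by mass spectrometry, three biological replicates.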
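For solubility in G1/S (NP-40 vs SDS abundance) in this document: HeLa Kyoto cells arrested at G1/S by double thymidine block, proteins quantified by TMT10plex mass spectrometry in mild NP-40 versus SDS extracts, three biological replicates.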

Sequence of TAF6 (chain, as listed by the source): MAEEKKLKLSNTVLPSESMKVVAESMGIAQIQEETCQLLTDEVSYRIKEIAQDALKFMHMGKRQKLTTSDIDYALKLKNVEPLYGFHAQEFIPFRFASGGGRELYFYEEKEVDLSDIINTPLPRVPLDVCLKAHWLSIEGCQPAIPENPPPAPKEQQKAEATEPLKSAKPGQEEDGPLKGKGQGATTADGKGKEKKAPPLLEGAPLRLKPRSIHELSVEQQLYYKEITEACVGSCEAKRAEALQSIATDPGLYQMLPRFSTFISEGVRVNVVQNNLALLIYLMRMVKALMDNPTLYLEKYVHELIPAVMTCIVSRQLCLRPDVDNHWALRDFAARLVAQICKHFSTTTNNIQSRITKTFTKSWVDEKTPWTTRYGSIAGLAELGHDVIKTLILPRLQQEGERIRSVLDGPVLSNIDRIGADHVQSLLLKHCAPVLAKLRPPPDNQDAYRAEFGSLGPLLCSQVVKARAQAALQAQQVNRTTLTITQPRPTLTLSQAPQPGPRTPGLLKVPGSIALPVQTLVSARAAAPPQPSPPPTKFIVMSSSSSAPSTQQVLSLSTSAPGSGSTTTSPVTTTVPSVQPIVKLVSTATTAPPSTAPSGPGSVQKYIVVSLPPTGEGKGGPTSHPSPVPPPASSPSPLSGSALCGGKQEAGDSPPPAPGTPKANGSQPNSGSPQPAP
Sequence of MARK1 (chain, as listed by the source): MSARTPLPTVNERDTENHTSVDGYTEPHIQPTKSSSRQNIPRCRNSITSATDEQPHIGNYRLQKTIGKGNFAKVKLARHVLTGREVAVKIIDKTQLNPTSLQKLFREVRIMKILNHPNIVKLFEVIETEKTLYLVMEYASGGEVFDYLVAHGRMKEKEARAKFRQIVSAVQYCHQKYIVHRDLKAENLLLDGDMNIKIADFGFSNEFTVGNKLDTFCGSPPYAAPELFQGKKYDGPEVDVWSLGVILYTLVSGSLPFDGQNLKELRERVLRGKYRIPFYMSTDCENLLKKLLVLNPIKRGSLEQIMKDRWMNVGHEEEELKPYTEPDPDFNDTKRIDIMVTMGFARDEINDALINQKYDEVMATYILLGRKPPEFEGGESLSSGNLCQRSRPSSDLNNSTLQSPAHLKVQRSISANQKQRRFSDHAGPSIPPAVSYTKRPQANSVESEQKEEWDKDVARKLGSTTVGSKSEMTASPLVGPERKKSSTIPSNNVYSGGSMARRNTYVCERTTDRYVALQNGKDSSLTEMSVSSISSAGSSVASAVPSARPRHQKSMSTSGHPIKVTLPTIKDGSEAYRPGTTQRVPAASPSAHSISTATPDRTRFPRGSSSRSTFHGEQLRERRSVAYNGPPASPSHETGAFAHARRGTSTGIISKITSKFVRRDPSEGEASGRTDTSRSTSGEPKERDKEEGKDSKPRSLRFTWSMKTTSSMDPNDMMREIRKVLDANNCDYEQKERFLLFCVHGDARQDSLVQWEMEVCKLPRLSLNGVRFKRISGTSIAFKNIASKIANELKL

Substance: MMFRDQVGILAGWFKGWNECEQTVALLSLLKRVTRTQARFLQLCLEHSLADCNDIHLLESEANSAAIVSQWQQESKEKVVSLLLSHLPLLQPGNTEAKSEYMRLLQKVLAYSIESNAFIEESRQLLSYALIHPATTLEDRNALALWLSHLEERLASGFRSRPEPSYHSRQGSDEWGGPAELGPGEAGPGWQDKPPRENGHVPFHPSSSVPPAINSIGSNANTGLPCQIHPSPLKRSMSLIPTSPQVPGEWPSPEELGARAAFTTPDHAPLSPQSSVASSGSEQTEEQGSSRNTFQEDGSGMKDVPSWLKSLRLHKYAALFSQMSYEEMMTLTEQHLESQNVTKGARHKIALSIQKLRERQSVLKSLEKDVLEGGNLRNALQELQQIIITPIKAYSVLQATVAAATTTPTAKDGAPGEPPLPGAEPPLAHPGTDKGTEAKDPPAVENYPPPPAPAPTDGSEPAPAPVADGDIPSQFTRVMGKVCTQLLVSRPDEENITSYLQLIEKCLTHEAFTETQKKRLLSWKQQVLKLLRTFPRKAALEMQNYRQQKGWAFGSNSLPIAGSVGMGVARRTQRQFPMPPRALPPGRMGLLSPSGIGGVSPRHALTSPSLGGQGRQNLWFANPGGSNSMPSQSRSSVQRTHSLPVHSSPQAILMFPPDCPVPGPDLEINPTLESLCLSMTEHALGDGTDKTSTI [SAMD4B]
- melting temperature ([1]; cell cycle stage: G1/S): 50.8 °C
- melting temperature ([1]; cell cycle stage: mitosis): 51.4 °C
- solubility in G1/S (log2) [2]: 0.549
- solubility change mitosis (log2) [3]: -0.0818

Substance: MSSPMPDCTSKCRSLKHALDVLSVVTKGSENQIKAFLSSHCYNAATIKDVFGRNALHLVSSCGKKGVLDWLIQKGVDLLVKDKESGWTALHRSIFYGHIDCVWSLLKHGVSLYIQDKEGLSALDLVMKDRPTHVVFKNTDPTDVYTWGDNTNFTLGHGSQNSKHHPELVDLFSRSGIYIKQVVLCKFHSVFLSQKGQVYTCGHGPGGRLGHGDEQTCLVPRLVEGLNGHNCSQVAAAKDHTVVLTEDGCVYTFGLNIFHQLGIIPPPSSCNVPRQIQAKYLKGRTIIGVAAGRFHTVLWTREAVYTMGLNGGQLGCLLDPNGEKCVTAPRQVSALHHKDIALSLVAASDGATVCVTTRGDIYLLADYQCKKMASKQLNLKKVLVSGGHMEYKVDPEHLKENGGQKICILAMDGAGRVFCWRSVNSSLKQCRWAYPRQVFISDIALNRNEILFVTQDGEGFRGRWFEEKRKSSEKKEILSNLHNSSSDVSYVSDINSVYERIRLEKLTFAHRAVSVSTDPSGCNFAILQSDPKTSLYEIPAVSSSSFFEEFGKLLREADEMDSIHDVTFQVGNRLFPAHKYILAVHSDFFQKLFLSDGNTSEFTDIYQKDEDSAGCHLFVVEKVHPDMFEYLLQFIYTDTCDFLTHGFKPRIHLNKNPEEYQGTLNSHLNKVNFHEDDNQKSAFEVYKSNQAQTVSERQKSKPKSCKKGKNIREDDPVRMLQTVAKKFDFSNLSSRLDGVRFENEKINVIAKNTGNKLKLSQKKCSFLCDVTMKSVDGKEFPCHKCVLCARLEYFHSMLSSSWIEASSCAALEMPIHSDILKVILDYLYTDEAVVIKESQNVDFICSVLVVADQLLITRLKEICEVALTEKLTLKNAAMLLEFAAMYSAKQLKLSCLQFIGLNMAALLEARSLDVLSDGVLKDLSEFYRKMIPAMDRRVITPYQDGPDISYLEVEDGDIFLKEEINMEQNHSETMFKKAKTKAKKKPRKRSDSSGGYNLSDIIQSPSSTGLLKSGKTNSVESLPELLTSDSEGSYAGVGSPRDLQSPDFTTGFHSDKIEAKVKPYVNGTSPVYSREDLKPWEKSPILKISAPQPIPSNRIDTTSSASWVAGSFSPVSPPVVDLRTIMEIEESRQKCGATPKSHLGKTVSHGVKLSQKQRKMIALTTKENNSGMNSMETVLFTPSKAPKPVNAWASSLHSVSSKSFRDFLLEEKKSVTSHSSGDHVKKVSFKGIENSQAPKIVRCSTHGTPGPEGNHISDLPLLDSPNPWLSSSVTAPSMVAPVTFASIVEEELQQEAALIRSREKPLALIQIEEHAIQDLLVFYEAFGNPEEFVIVERTPQGPLAVPMWNKHGC [IBTK]
- melting temperature ([1]; cell cycle stage: G1/S): 52.7 °C
- melting temperature ([1]; cell cycle stage: mitosis): 50.8 °C
- solubility in G1/S (log2) [2]: -0.61
- solubility change mitosis (log2) [3]: 0.351

Substance: MEKIEEQFANLHIVKCSLGTKEPTYLLGIDTSKTVQAGKENLVAVLCSNGSIRIYDKERLNVLREFSGYPGLLNGVRFANSCDSVYSACTDGTVKCWDARVAREKPVQLFKGYPSNIFISFDINCNDHIICAGTEKVDDDALLVFWDARMNSQNLSTTKDSLGAYSETHSDDVTQVRFHPSNPNMVVSGSSDGLVNVFDINIDNEEDALVTTCNSISSVSCIGWSGKGYKQIYCMTHDEGFYWWDLNHLDTDEPVTRLNIQDVREVVNMKEDALDYLIGGLYHEKTDTLHVIGGTNKGRIHLMNCSMSGLTHVTSLQGGHAATVRSFCWNVQDDSLLTGGEDAQLLLWKPGAIEKTFTKKESMKIASSVHQRVRVHSNDSYKRRKKQ [WDR89]
- melting temperature ([1]; cell cycle stage: G1/S): 57.4 °C
- melting temperature ([1]; cell cycle stage: mitosis): 55.9 °C
- solubility in G1/S (log2) [2]: -1.26
- solubility change mitosis (log2) [3]: 0.369

Substance: MFVSDFRKEFYEVVQSQRVLLFVASDVDALCACKILQALFQCDHVQYTLVPVSGWQELETAFLEHKEQFHYFILINCGANVDLLDILQPDEDTIFFVCDTHRPVNVVNVYNDTQIKLLIKQDDDLEVPAYEDIFRDEEEDEEHSGNDSDGSEPSEKRTRLEEEIVEQTMRRRQRREWEARRRDILFDYEQYEYHGTSSAMVMFELAWMLSKDLNDMLWWAIVGLTDQWVQDKITQMKYVTDVGVLQRHVSRHNHRNEDEENTLSVDCTRISFEYDLRLVLYQHWSLHDSLCNTSYTAARFKLWSVHGQKRLQEFLADMGLPLKQVKQKFQAMDISLKENLREMIEESANKFGMKDMRVQTFSIHFGFKHKFLASDVVFATMSLMESPEKDGSGTDHFIQALDSLSRSNLDKLYHGLELAKKQLRATQQTIASCLCTNLVISQGPFLYCSLMEGTPDVMLFSRPASLSLLSKHLLKSFVCSTKNRRCKLLPLVMAAPLSMEHGTVTVVGIPPETDSSDRKNFFGRAFEKAAESTSSRMLHNHFDLSVIELKAEDRSKFLDALISLLS [CDC45]
- melting temperature ([1]; cell cycle stage: G1/S): 47.6 °C
- melting temperature ([1]; cell cycle stage: mitosis): 48.5 °C
- solubility in G1/S (log2) [2]: -0.233
- solubility change mitosis (log2) [3]: -0.126

Substance: TAF6
- melting temperature ([1]; cell cycle stage: G1/S): 49.1 °C
- melting temperature ([1]; cell cycle stage: mitosis): 49.6 °C
- solubility in G1/S (log2) [2]: 0.14
- solubility change mitosis (log2) [3]: 0.046

Substance: MDDKAFTKELDQWVEQLNECKQLNENQVRTLCEKAKEILTKESNVQEVRCPVTVCGDVHGQFHDLMELFRIGGKSPDTNYLFMGDYVDRGYYSVETVTLLVALKVRYPERITILRGNHESRQITQVYGFYDECLRKYGNANVWKYFTDLFDYLPLTALVDGQIFCLHGGLSPSIDTLDHIRALDRLQEVPHEGPMCDLLWSDPDDRGGWGISPRGAGYTFGQDISETFNHANGLTLVSRAHQLVMEGYNWCHDRNVVTIFSAPNYCYRCGNQAAIMELDDTLKYSFLQFDPAPRRGEPHVTRRTPDYFL [PPP2CB]
- melting temperature ([1]; cell cycle stage: G1/S): 45.7 °C
- melting temperature ([1]; cell cycle stage: mitosis): 54.8 °C
- solubility in G1/S (log2) [2]: 0.0545
- solubility change mitosis (log2) [3]: -0.00731

Substance: MAQQANVGELLAMLDSPMLGVRDDVTAVFKENLNSDRGPMLVNTLVDYYLETSSQPALHILTTLQEPHDKHLLDRINEYVGKAATRLSILSLLGHVIRLQPSWKHKLSQAPLLPSLLKCLKMDTDVVVLTTGVLVLITMLPMIPQSGKQHLLDFFDIFGRLSSWCLKKPGHVAEVYLVHLHASVYALFHRLYGMYPCNFVSFLRSHYSMKENLETFEEVVKPMMEHVRIHPELVTGSKDHELDPRRWKRLETHDVVIECAKISLDPTEASYEDGYSVSHQISARFPHRSADVTTSPYADTQNSYGCATSTPYSTSRLMLLNMPGQLPQTLSSPSTRLITEPPQATLWSPSMVCGMTTPPTSPGNVPPDLSHPYSKVFGTTAGGKGTPLGTPATSPPPAPLCHSDDYVHISLPQATVTPPRKEERMDSARPCLHRQHHLLNDRGSEEPPGSKGSVTLSDLPGFLGDLASEEDSIEKDKEEAAISRELSEITTAEAEPVVPRGGFDSPFYRDSLPGSQRKTHSAASSSQGASVNPEPLHSSLDKLGPDTPKQAFTPIDLPCGSADESPAGDRECQTSLETSIFTPSPCKIPPPTRVGFGSGQPPPYDHLFEVALPKTAHHFVIRKTEELLKKAKGNTEEDGVPSTSPMEVLDRLIQQGADAHSKELNKLPLPSKSVDWTHFGGSPPSDEIRTLRDQLLLLHNQLLYERFKRQQHALRNRRLLRKVIKAAALEEHNAAMKDQLKLQEKDIQMWKVSLQKEQARYNQLQEQRDTMVTKLHSQIRQLQHDREEFYNQSQELQTKLEDCRNMIAELRIELKKANNKVCHTELLLSQVSQKLSNSESVQQQMEFLNRQLLVLGEVNELYLEQLQNKHSDTTKEVEMMKAAYRKELEKNRSHVLQQTQRLDTSQKRILELESHLAKKDHLLLEQKKYLEDVKLQARGQLQAAESRYEAQKRITQVFELEILDLYGRLEKDGLLKKLEEEKAEAAEAAEERLDCCNDGCSDSMVGHNEEASGHNGETKTPRPSSARGSSGSRGGGGSSSSSSELSTPEKPPHQRAGPFSSRWETTMGEASASIPTTVGSLPSSKSFLGMKARELFRNKSESQCDEDGMTSSLSESLKTELGKDLGVEAKIPLNLDGPHPSPPTPDSVGQLHIMDYNETHHEHS [TSC1]
- melting temperature ([1]; cell cycle stage: G1/S): 50.2 °C
- melting temperature ([1]; cell cycle stage: mitosis): 50.7 °C
- solubility in G1/S (log2) [2]: 0.0426
- solubility change mitosis (log2) [3]: -0.187

Substance: MGAQFSKTAAKGEAAAERPGEAAVASSPSKANGQENGHVKVNGDASPAAAESGAKEELQANGSAPAADKEEPAAAGSGAASPSAAEKGEPAAAAAPEAGASPVEKEAPAEGEAAEPGSPTAAEGEAASAASSTSSPKAEDGATPSPSNETPKKKKKRFSFKKSFKLSGFSFKKNKKEAGEGGEAEAPAAEGGKDEAAGGAAAAAAEAGAASGEQAAAPGEEAAAGEEGAAGGDPQEAKPQEAAVAPEKPPASDETKAAEEPSKVEEKKAEEAGASAAACEAPSAAGPGAPPEQEAAPAEEPAAAAASSACAAPSQEAQPECSPEAPPAEAAE [MARCKS]
- melting temperature ([1]; cell cycle stage: G1/S): 55.6 °C
- solubility in G1/S (log2) [2]: -0.36
- solubility change mitosis (log2) [3]: 0.579

Substance: MVAYWRQAGLSYIRYSQICAKAVRDALKTEFKANAEKTSGSNVKIVKVKKE [ATP5E]
- melting temperature ([1]; cell cycle stage: G1/S): 53.2 °C
- melting temperature ([1]; cell cycle stage: mitosis): 51.8 °C
- solubility in G1/S (log2) [2]: -0.106
- solubility change mitosis (log2) [3]: 0.368

Substance: MAASTASHRPIKGILKNKTSTTSSMVASAEQPRGNVDEELSKKSQKWDEMNILATYHPADKDYGLMKIDEPSTPYHSMMGDDEDACSDTEATEAMAPDILARKLAAAEGLEPKYRIQEQESSGEEDSDLSPEEREKKRQFEMKRKLHYNEGLNIKLARQLISKDLHDDDEDEEMLETADGESMNTEESNQGSTPSDQQQNKLRSS [PPP1R2]
- melting temperature ([1]; cell cycle stage: G1/S): 59.3 °C
- melting temperature ([1]; cell cycle stage: mitosis): 52.4 °C
- solubility in G1/S (log2) [2]: 0.172
- solubility change mitosis (log2) [3]: 0.383

Substance: MARK1
- melting temperature ([1]; cell cycle stage: mitosis): 49 °C
- solubility in G1/S (log2) [2]: -0.155
- solubility change mitosis (log2) [3]: -0.0417

Substance: MASQNRDPAATSVAAARKGAEPSGGAARGPVGKRLQQELMTLMMSGDKGISAFPESDNLFKWVGTIHGAAGTVYEDLRYKLSLEFPSGYPYNAPTVKFLTPCYHPNVDTQGNICLDILKEKWSALYDVRTILLSIQSLLGEPNIDSPLNTHAAELWKNPTAFKKYLQETYSKQVTSQEP [UBE2C]
- melting temperature ([1]; cell cycle stage: mitosis): 49.9 °C
- solubility in G1/S (log2) [2]: -0.443
- solubility change mitosis (log2) [3]: 0.955

Substance: MSGSVLFTAGERWRCFLTPSRSSLYWALHNFCCRKKSTTPKKITPNVTFCDENAKEPENALDKLFSSEQQASILHVLNTASTKELEAFRLLRGRRSINIVEHRENFGPFQNLESLMNVPLFKYKSTVQVCNSILCPKTGREKRKSPENRFLRKLLKPDIERERLKAVNSIISIVFGTRRIAWAHLDRKLTVLDWQQSDRWSLMRGIYSSSVYLEEISSIISKMPKADFYVLEKTGLSIQNSSLFPILLHFHIMEAMLYALLNKTFAQDGQHQVLSMNRNAVGKHFELMIGDSRTSGKELVKQFLFDSILKADPRVFFPSDKIVHYRQMFLSTELQRVEELYDSLLQAIAFYELAVFDSQP [TEFM]
- melting temperature ([1]; cell cycle stage: G1/S): 50.9 °C
- melting temperature ([1]; cell cycle stage: mitosis): 49.1 °C
- solubility in G1/S (log2) [2]: -0.375
- solubility change mitosis (log2) [3]: 0.119

— the supplement of paper PMC5998384
